From patent US20170355757A1 (Regeneron, published 2017)

T1: monkey C5-mmh (monkey, UniProt P01031 19-1676 (human entry), limits assumed)
T1 construct: Expressed with a C-terminal myc-myc-hexahistidine tag
T1 chain: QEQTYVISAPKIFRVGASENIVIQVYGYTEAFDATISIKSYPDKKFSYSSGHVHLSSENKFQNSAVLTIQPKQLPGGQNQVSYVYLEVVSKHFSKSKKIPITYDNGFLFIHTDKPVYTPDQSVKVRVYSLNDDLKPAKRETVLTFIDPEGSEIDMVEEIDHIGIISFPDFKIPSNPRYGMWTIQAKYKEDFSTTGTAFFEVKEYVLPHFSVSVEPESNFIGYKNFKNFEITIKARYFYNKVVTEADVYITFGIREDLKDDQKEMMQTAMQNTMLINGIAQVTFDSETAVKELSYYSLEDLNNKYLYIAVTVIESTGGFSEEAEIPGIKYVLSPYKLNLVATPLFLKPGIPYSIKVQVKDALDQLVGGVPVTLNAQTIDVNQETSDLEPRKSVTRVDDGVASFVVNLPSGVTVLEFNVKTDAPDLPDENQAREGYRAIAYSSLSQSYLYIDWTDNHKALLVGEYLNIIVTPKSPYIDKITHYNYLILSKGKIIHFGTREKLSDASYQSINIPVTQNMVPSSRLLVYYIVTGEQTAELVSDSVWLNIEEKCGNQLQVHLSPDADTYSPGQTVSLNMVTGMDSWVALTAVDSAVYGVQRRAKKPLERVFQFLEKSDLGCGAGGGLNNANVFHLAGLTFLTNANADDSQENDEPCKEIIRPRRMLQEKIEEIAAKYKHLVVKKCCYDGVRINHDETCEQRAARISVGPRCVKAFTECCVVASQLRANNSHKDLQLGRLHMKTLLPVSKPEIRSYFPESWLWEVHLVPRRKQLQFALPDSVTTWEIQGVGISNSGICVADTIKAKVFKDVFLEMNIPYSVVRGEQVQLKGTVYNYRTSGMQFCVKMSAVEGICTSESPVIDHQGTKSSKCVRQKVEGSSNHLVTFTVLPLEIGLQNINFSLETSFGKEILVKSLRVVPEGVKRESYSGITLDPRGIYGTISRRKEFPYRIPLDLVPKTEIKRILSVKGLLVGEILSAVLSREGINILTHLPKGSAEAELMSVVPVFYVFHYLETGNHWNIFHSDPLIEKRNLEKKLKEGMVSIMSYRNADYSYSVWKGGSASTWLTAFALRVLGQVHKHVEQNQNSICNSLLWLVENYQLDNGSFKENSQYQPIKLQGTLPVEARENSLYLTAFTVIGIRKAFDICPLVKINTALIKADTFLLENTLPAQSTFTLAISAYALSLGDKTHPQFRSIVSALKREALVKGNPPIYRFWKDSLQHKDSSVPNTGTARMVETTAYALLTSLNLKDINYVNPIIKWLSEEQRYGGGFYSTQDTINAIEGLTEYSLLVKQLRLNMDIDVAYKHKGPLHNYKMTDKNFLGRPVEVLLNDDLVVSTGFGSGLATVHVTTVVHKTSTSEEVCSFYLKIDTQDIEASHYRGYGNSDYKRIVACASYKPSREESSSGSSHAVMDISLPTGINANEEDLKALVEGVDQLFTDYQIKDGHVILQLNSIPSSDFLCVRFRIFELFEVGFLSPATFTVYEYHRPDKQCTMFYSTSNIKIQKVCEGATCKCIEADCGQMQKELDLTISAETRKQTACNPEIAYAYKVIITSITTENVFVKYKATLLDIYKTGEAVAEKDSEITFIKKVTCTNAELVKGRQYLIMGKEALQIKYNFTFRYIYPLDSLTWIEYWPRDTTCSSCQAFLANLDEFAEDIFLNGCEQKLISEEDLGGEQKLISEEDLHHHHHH


Legend:
Human C5 [1] = biological target: T2, Human C5 (human, UniProt P01031 19-1676); assay: SPR, mAb captured by anti-hFc, 25C
T2 construct: The natural protein has a beta and an alpha chain; also called complement factor 5; complement component 5
Description: (§1) Equilibrium dissociation constants (KD values) for C5 binding to purified anti-C5 antibodies were determined using a real-time surface plasmon resonance biosensor assay on a Biacore T200 instrument. The Biacore sensor surface was derivatized by amine coupling with a monoclonal mouse anti-human Fc antibody (GE Healthcare, # BR-1008-39) to capture anti-C5 antibodies expressed with human Fc constant regions. Biacore binding studies were conducted in HBST running buffer (0.01M HEPES pH 7.4, 0.15M NaCl, 3 mM EDTA, 0.05% v/v Surfactant P20).
(§2) Human C5 was obtained from a commercial source (EMD). Other C5 reagents were expressed with a C-terminal myc-myc-hexahistidine tag (subsequently referred to as C5-mmh). […] Association of all the C5 reagents to each of the captured monoclonal antibodies was monitored for 3 minutes and their dissociation in HBST running buffer was monitored for 8 minutes. All the binding kinetics experiments were performed at either 25° C. or 37° C. Kinetic association (kₐ) and dissociation (kd) rate constants were determined by fitting the real-time sensorgrams to a 1:1 binding model using Scrubber 2.0c curve fitting software. Binding dissociation equilibrium constants (KD) and dissociative half-lives (t %) were calculated from the kinetic rate constants as: KD (M)=kd/kₐ and t_{1/2} (min)=In2/(60×kd)

monkey C5-mmh = biological target: T1, monkey C5-mmh; assay: SPR, mAb captured by anti-hFc, 25C
Description: as §1, §2

Human C5 [2] = biological target: T2, Human C5; assay: SPR, mAb captured by anti-hFc, 37C
Description: as §1, §2

Row | Binder | 100 nM Human C5 Bound (RU) (Human C5 [1]) | Kd (Human C5 [1]) [nM] | koff (Human C5 [1]) [s⁻¹] | kon (Human C5 [1]) [M⁻¹ s⁻¹] | t½ (Human C5 [1]) [min] | 100 nM monkey C5-mmh Bound (RU) (monkey C5-mmh) | Kd (monkey C5-mmh) [nM] | koff (monkey C5-mmh) [s⁻¹] | kon (monkey C5-mmh) [M⁻¹ s⁻¹] | t1/2 (monkey C5-mmh) [min] | 100 nM Human C5 Bound (RU) (Human C5 [2]) | Kd (Human C5 [2]) [nM] | koff (Human C5 [2]) [s⁻¹] | kon (Human C5 [2]) [M⁻¹ s⁻¹] | t½ (Human C5 [2]) [min]
1 | H4H12169P (antibody, human IgG4, V domains shown) VH: EVQLVESGGGLAQPGGSLRLSCAASGFTFRSYAMSWVRQAPGKGPEWVSGIGGNGVTTYYADSVKGRFTISRDNSKNTLFLQMNSLRAEDTAVYYCVQGGLGGYFTGYWGQGTLVTVSS VL: DIQMTQSPSSLSASVGDRVTITCRASQSISTYLNWYQQNPGKAPKLLIFDASSLQSGVPSRFSGSGSGTDFTLTIRGLQPEDFATYYCQQSYSAPLTFGGGTKVEIK | 18 | 1.96 | 0.00044 | 224000 | 26 | 22 | 27.8 | 0.00455 | 164000 | 3 | 65 | 3.06 | 0.000352 | 115000 | 33
2 | H4H12159P (antibody, human IgG4, V domains shown) VH: QVQLVESGGGVVQPGRSLRLSCGASGFTFSTYGMHWVRQAPGKGLEWVAVIWDDGNNKYYADSVKGRFTISRDNSKNTLYLQMNSLRAEDTAVYYCARDSEVAPVGDYWGQGTLVTVSS VL: DIQMTQSPSTLSASVGDRVTIICRASQSINRWLAWYQQKPGKAPKLLIYKASSLESGVPSRFSGSGSGTEFTLTISSLQPDDFAAYYCQQYNDYSYTFGQGTKLEIK | 118 | 0.0731 | 7.13e-05 | 975000 | 162 | 116 | 0.133 | 4.69e-05 | 354000 | 246 | 145 | 0.103 | 0.000107 | 1.04e+06 | 108
3 | H4H12163P (antibody, human IgG4, V domains shown) VH: EVQLVESGGDLVQPGGSLRLSCAASGFTFSSYAMNWVRQGPGKGLEWVSAISGRGDSTYYADSVKGRLTISRDNSKNTLYLQMNSLRAEDTAVYYCVKEGEQLVYWYFDLWGRGTLVTVSS VL: DIQMTQSPSSLSASVGDRVTITCRASQTISNFLHWYQQKPGKAPKLLIYAASSLQSGVPSRFSGSGSGTDFTLTISSLQPEDFSTYFCQQSYTTPLTFGGGTKVEIK | 108 | 0.324 | 0.000208 | 643000 | 55 | 98 | 2.49 | 0.000775 | 311000 | 15 | 139 | 0.729 | 0.000665 | 911000 | 17

More lines, in order of falling Kd (Human C5 [1]), values ahead:

Row | 100 nM Human C5 Bound (RU) (Human C5 [1]) | Kd (Human C5 [1]) [nM] | koff (Human C5 [1]) [s⁻¹] | kon (Human C5 [1]) [M⁻¹ s⁻¹] | t½ (Human C5 [1]) [min] | 100 nM monkey C5-mmh Bound (RU) (monkey C5-mmh) | Kd (monkey C5-mmh) [nM] | koff (monkey C5-mmh) [s⁻¹] | kon (monkey C5-mmh) [M⁻¹ s⁻¹] | t1/2 (monkey C5-mmh) [min] | 100 nM Human C5 Bound (RU) (Human C5 [2]) | Kd (Human C5 [2]) [nM] | koff (Human C5 [2]) [s⁻¹] | kon (Human C5 [2]) [M⁻¹ s⁻¹] | t½ (Human C5 [2]) [min] | Binder
4 | 100 | 0.91 | 0.000196 | 216000 | 59 | 59 | 25.7 | 0.00165 | 64200 | 7 | 132 | 2.15 | 0.000637 | 296000 | 18 | H4H12175P (antibody, human IgG4, V domains shown) VH: EVQLVESGGGVVQPGGSLRLSCAASGFTFNDYAMHWVRQAPGKGLEWVSLISGDGGNTYYADSVKGRLTISRDNSKNSLYLQMNSLRTEDTALYYCAKDKGWNFGYFDLWGRGTLVTVSS VL: DIQMTQSPSSLSTSVGDRVTITCRASQNIDTYLNWYQQKPGKAPKLLIYDASSLQSGVPSRFSGSGSGTDFTLTITSLQPEDFATYYCQQNDNILHPLTFGGGTKVEIK
5 | 103 | 0.302 | 8.84e-05 | 292000 | 131 | 66 | 12 | 0.00153 | 127000 | 8 | 140 | 0.323 | 0.000128 | 396000 | 90 | H4H12164P (antibody, human IgG4, V domains shown) VH: EVQLVESGGGLVRSGGSLRLSCAASGFTFNRYAMTWVRQAPGKGLEWVSAISGSGSSTYYTDSVKGRFTISRDNSKNSVDLQMHSLRVEDTAIYYCARGTTVTTGYGMDVWGQGTTVTVSS VL: DIQMTQSPSSLSASVGDRVTFTCQASQDITNSLNWYQQKPGRAPKLLIYDASYLKAGVPSRFSGSGSGTDFTFTISSLQPEDIATYYCQQYDDLPYTFGQGTKLEIK
6 | 96 | 0.201 | 6.75e-05 | 336000 | 171 | 69 | 0.322 | 5.88e-05 | 182000 | 196 | 71 | 1.59 | 0.000234 | 147000 | 49 | H4H12176P2 (antibody, human IgG4, V domains shown) VH: EVQLVESGGGLVQPGGSLRLSCAASGFHSNRYWMDWVRQAPGKGLEWVANIKQDGSEENYVDSVKGRFTISRDNAKNSLYLQMNSLRAEDTAVYYCARDRSTSWVPYWFFDLWGRGTLVTVSS VL: not shown
7 | 116 | 0.121 | 0.000131 | 1.09e+06 | 88 | 111 | 0.315 | 0.000132 | 419000 | 88 | 153 | 0.295 | 0.000381 | 1.29e+06 | 30 | H4H12167P (antibody, human IgG4, V domains shown) VH: QVQLVESGGGLVKPGGSLRLSCAASGFTFSDSYMSWIRQAPGKGLEWISYIGSSGNTFYYADSVKGRFTISRDNANNLLYLQMTSLRAEDTAVYYCAREEGDFWSAVDSWGQGTLVTVSS VL: DIQLTQSPSFLSASVGDRVTITCWASQGISSYLAWYQQKPGKAPKLLIHTASTLQSGVPSRFSGSGSGTEFTLTISNLQPEDFATYYCQQLNSYPFTFGPGTKVDIK
8 | 113 | 0.112 | 4.75e-05 | 423000 | 243 | 86 | 0.66 | 0.000114 | 173000 | 101 | 12 | 18.5 | 0.000464 | 25000 | 25 | H4H12168P (antibody, human IgG4, V domains shown) VH: QVQLVESGGGVVQPGGSLRLSCAASGFTFGGHAMHWVRQAPGKGLEWLAVISSDGSNKQYADSVKGRFTISRDNPKNTLYLQMNSLRVGDTAIYYCAKEVAPRYYYYGLDVWGQGTTVTVSS VL: DIQMTQSPSSLSASVGDRVTITCRASQDISNFLAWYQQKPGKVPKLLIYTASTLQSGVPSRFSGSGSGTDFTLTVSSLQPEDVATYYCQKYAGALTFGPGTKVDIK
